In this data set the target is SOD1 G93A (untagged) (human, UniProt P00441 2-154, G94A). Kind of data set: competition.
Chain of SOD1 G93A (untagged) (P00441 2-154 G94A): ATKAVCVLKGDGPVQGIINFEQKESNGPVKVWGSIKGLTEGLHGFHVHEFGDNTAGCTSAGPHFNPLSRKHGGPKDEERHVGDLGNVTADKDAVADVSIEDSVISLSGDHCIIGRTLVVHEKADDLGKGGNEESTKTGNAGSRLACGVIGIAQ

B1: control RNA (no AU-rich sequence) (ssRNA)
RNA: CGGAGCCCAGCCCUCCCCAUGGAGCCAGCUCCCUCU
B1: the binding result is “no binding”.
